In patent US20180000925:

Target: recombinant HCV E2 protein (eEnzyme)

B1: CD45 (Enzo Life Sciences) (protein)
chain: SCNLDEQQELVERDDEKQLMNVEPIHADILLETYKRKIADEGRLFLAEFQSIPRVFSKFPIKEARKPFNQNKNRYVDILPYDYNRVELSEINGDAGSNYINASYIDGFKEPRKYIAAQGPRDETVDDFWRMIWEQKATVIVMVTRCEEGNRNKCAEYWPSMEEGTRAFGDVVVKINQHKRCPDYIIQKLNIVNKKEKATGREVTHIQFTSWPDHGVPEDPHLLLKLRRRVNAFSNFFSGPIVVHCSAGVGRTGTYIGIDAMLEGLEAENKVDVYGYVVKLRRQRCLMVQVEAQYILIHQALVEYNQFGETEVNLSELHPYLHNMKKRDPPSEPSPLEAEFQRLPSYRSWRTQHIGNQEENKSKNRNSNVIPYDYNRVPLKHELEMSKESEHDSDESSDDDSDSEEPSKYINASFIMSYWKPEVMIAAQGPLKETIGDFWQMIFQRKVKVIVMLTELKHGDQEICAQYWGEGKQTYGDIEVDLKDTDKSSTYTLRVFELRHSKRKDSRTVYQYQYTNWSVEQLPAEPKELISMIQVVKQKLPQKNSSEGNKHHKSTPLLIHCRDGSQQTGIFCALLNLLESAETEEVVDIFQVVKALRKARPGMVSTFEQYQFLYDVIASTYPAQNGQVKKNNHQEDKIEFDNEVDKVKQDANCVNPLGAPEKLPEAKEQAEGSEPTSGTEGPEHSVNGPASPALNQGS
  dephosphorylation in an in vitro reaction (phosphotyrosine immunoblot): dephosphorylated by CD45
